Three substances from patent publication US20100169989A1 can be followed below.

In test [1] the target is myostatin mature C-terminal dimer (purified from conditioned medium of CHO cells carrying a myostatin expression construct) (UniProt O14793). The test is described as follows: inhibition of labeled myostatin binding to Act RIIB-transfected COS-7 cells.
Test [2] deals with cell surface binding proteins on L6 myoblasts (GDF-8 receptor). The test is described as follows: I-125 labeled GDF-8 receptor-ligand binding assay on myoblasts.

myostatin prodomain peptide (purified from the CHO cell myostatin preparation), sequence (O08689 25-267): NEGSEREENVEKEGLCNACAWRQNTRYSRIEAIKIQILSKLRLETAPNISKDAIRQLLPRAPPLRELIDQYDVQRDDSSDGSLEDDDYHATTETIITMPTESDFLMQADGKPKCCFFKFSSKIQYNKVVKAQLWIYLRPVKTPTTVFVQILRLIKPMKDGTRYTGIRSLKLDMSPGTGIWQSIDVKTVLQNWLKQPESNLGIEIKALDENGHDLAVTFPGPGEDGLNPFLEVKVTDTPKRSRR

Substance “myostatin prodomain peptide (purified from the CHO cell myostatin preparation)” displayed a fold of Ki against the Ki of follistatin in test [1] of 50 fold.
Consider “recombinant human GDF-8 (rhGDF-8) homodimer (from UniProt O14793 267-374) (ligand)”, for which the Kd (commonly the free concentration of one partner at which half of the binding sites on the other are occupied at equilibrium, for simple one-to-one binding) in test [2] amounted to 0.37 nM.
For the substance follistatin, the Ki – broadly, the dissociation constant of the complex between target and ligand, obtained from inhibition or displacement – in test [1] turned out to be 0.47 nM.
